Experimental findings from patent US12624096B2, “Anti-tau antibodies and methods of use thereof” (GTInvent Limited, priority 2020, dated 2026) are described below.

“Also recorded” adds a separate entry of the source.

In one experiment the target is hT40 (Homo sapiens, UniProt P10636). The experiment in a line: Biacore X100 SPR, scAb captured via anti-HuCk, hT40 as analyte. The experiment is classed as binding. The settings on record: scAb, Table 23, T441 (hT40). The method, then:
Surface plasmon resonance (SPR) is widely regarded as the gold standard for real time measurement of protein-protein interactions such as antibody binding. All SPR experiments were carried out using a Biacore X100 machine and HBS EP+ running buffer (GE Healthcare). A ‘capture’ method was followed for affinity measurements, where an anti-human constant kappa chain (HuCk) antibody was conjugated to the surface of a CM5 sensor chip using an amine coupling kit and scAb molecules were immobilised via their HuCk domain. Amine coupling is a very common approach for immobilising the ligand to the chip surface. […] The capture antibody was diluted 1/100 in 10 mM Sodium acetate buffer pH 5.0 and passed over the activated chip surface for a period of at least 420 s. Final ligand immobilisation levels over 12,000 RU were deemed to be satisfactory.
(§1) Following immobilisation, the level of each scAb to be captured was identified using the standard SPR equation with a theoretical RMax of 100 RU. Analyte MW refers to the molecular weight of hT40 or dGA/dGAE molecules, while ligand MW refers to the molecular weight of the scAbs tested. RL is the desired capture level and S refers to the stoichiometric ratio:
The scAb to be tested was added only to flow cell 2 so that flow cell 1 could act as a control to subtract any interaction with the analyte and the chip surface. Both single and multi-cycle runs were utilised using wizards developed in the Biacore X100 control software which are both accepted methods of kinetic analysis (Karlsson, R., et al. Analyzing a kinetic titration series using affinity biosensors (2006) Analytical Biochemistry 349:136-47). The multi-cycle protocol was as follows-Three start-up cycles composed of an initial capture, to the desired level, of the scAb to be tested was performed followed by a 30 s injection of glycine buffer pH 2.0 after each cycle to regenerate the chip surface. […] Following three start-up cycles increasing concentrations (0.15625 nM-100 nM) of the target to be tested were added to the chip surface after the desired scAb capture. The target was added for a 120 s association period and 420 s dissociation period followed by another regeneration, 30 s injection of glycine buffer pH 2.0 in between each cycle.
(§2) The single cycle kinetics protocol was similar and utilised the same level of scAb capture. Three start-up cycles were used followed by 5 increasing concentrations of the analyte (6.25 nM-100 nM) for an association period of 120 s followed by a dissociation period of 420 s for each concentration. In single cycle kinetics the regeneration step was performed only after the final analyte concentration was added. Binding responses were analysed in Biacore X100 evaluation software and data fitted to a 1:1 binding model to obtain kinetic and affinity characterisation.
In general terms: Surface plasmon resonance follows binding to a sensor surface in real time, without labels.

The target of a further experiment is htau40 (Homo sapiens, UniProt P10636). The experiment in a line: Biacore X100 SPR of anti-tau mAbs on immobilised htau40. The class given is binding. The method, then:
For anti-tau mAb SPR measurements, htau40 was conjugated to the surface of a CM5 sensor chip using amine coupling as explained previously. Briefly, 2 μg/mL htau40 in 10 mM Sodium acetate buffer (pH 4.0) was passed over the activated chip surface (EDC/NHS) in flow cell 2 for a period for 45 s followed by blocking with 1 M ethanolamine-HCl PH 8.5. Flow cell 1 was set up as reference control and blocked simultaneously. Final immobilisation level of htau40 (Rmax) was approximately 250 RU. Following a minimum of three start-up cycles, increasing concentrations (0.78 nM-25 nM) of the mAb in HBS-EP+ buffer was added at a rate of 30 μL/min to the chip. The mAb was added for a 120 s association period and 600 s dissociation period followed by a regeneration cycle of 30 s injection of glycine buffer pH 1.5 in between each cycle. Binding responses were analysed in Biacore X100 evaluation software and data fitted to a 1:1 binding model to obtain kinetic and affinity characterisation.
For anti-tau mAb SPR measurements (Biacore X100™) and epitope mapping, the same methodologies described above (see Example 16) were followed. Kinetic rates and equilibrium binding constants of additional anti-tau mAbs and the regions recognised on hT40 are given in the Table 25 below

The subject of a further experiment is human tau and mouse tau. The experiment in a line: Western blot of WT, L66+/+ and L1+/+ mouse brain homogenates. The experiment is classed as binding. The conditions noted are these: 20 μg protein, 5-month-old mice. The method, then:
Protein equivalent to 20 μg from each brain extract was separated using 4-20% bis-tris gels and run in 1×MES buffer.
A band is detected in each sample (WT, L66^+/+ and L1^+/+) with an apparent molecular weight of approximately 55 kDa. This band most likely corresponds to endogenous mouse tau which is of a similar size. In the L66^+/+ samples, a second band running at approximately 68 kDa is also detected. The presence of numerous other bands indicates proteolytic truncation of tau within brain homogenates.

In experiment [1] the test system is hT40, dGA, dGAE and truncated tau fragments/peptides. Kind of experiment: Binding ELISA for epitope mapping with truncated tau proteins and biotinylated 13mer peptides. More on the design: species or system human. The conditions noted are these: direct binding ELISA. As to the method:
A series of binding ELISA was performed using various truncated versions of the tau protein and 13mer peptide libraries spanning the entire hT40 molecule for mapping the epitopes of anti-tau scAbs (Full list of protein antigens used is given in Table 14). In general, ELISA plates were coated with 1 μg/ml hT40 or dGA or dGAE or other truncated versions of the protein and in the case of biotinylated peptides, plates were coated with 5 μg/ml Streptavidin followed by 1 μg/ml biotinylated peptide. The plates were blocked with 2% MPBS and scAb samples added at desired starting concentrations and double diluted across the plate. Binding was detected using anti-Human C Kappa HRP conjugated secondary antibody and the resulting immunoreaction was developed and absorbance values measured as described above.
Similarly, dGA binding ‘NS’, ‘S’ and ‘M’ group scAbs were subjected to further antigen binding ELISA using shorter tau proteins and biotinylated 13mer peptides as shown below (FIGS. 10A-F) and (FIGS. 11A-R).
For anti-tau mAb SPR measurements (Biacore X100™) and epitope mapping, the same methodologies described above (see Example 16) were followed.
For orientation: ELISA stands for enzyme-linked immunosorbent assay.

A further experiment addresses dGA (Homo sapiens, UniProt P10636). Kind of experiment: Biacore X100 SPR, scAb captured via anti-HuCk, dGA as analyte. The settings on record: dissociation rate. The experiment is classed as binding. The method, then:
Surface plasmon resonance (SPR) is widely regarded as the gold standard for real time measurement of protein-protein interactions such as antibody binding. All SPR experiments were carried out using a Biacore X100 machine and HBS EP+ running buffer (GE Healthcare). A ‘capture’ method was followed for affinity measurements, where an anti-human constant kappa chain (HuCk) antibody was conjugated to the surface of a CM5 sensor chip using an amine coupling kit and scAb molecules were immobilised via their HuCk domain. Amine coupling is a very common approach for immobilising the ligand to the chip surface. The chip surface has a dextran matrix derivatised with carboxyl groups, which after activation with N-hydroxysuccinimide (NHS) and 1-ethyl-3-(3-dimethylaminopropyl) carbodiimide (EDC), form reactive succinimide esters which allows the covalent capturing of the ligand via any available primary amine groups (e.g. Lysine) on the ligand (in this case anti-HuCk antibody). The capture antibody was diluted 1/100 in 10 mM Sodium acetate buffer pH 5.0 and passed over the activated chip surface for a period of at least 420 s. Final ligand immobilisation levels over 12,000 RU were deemed to be satisfactory.
as §1
The scAb to be tested was added only to flow cell 2 so that flow cell 1 could act as a control to subtract any interaction with the analyte and the chip surface. Both single and multi-cycle runs were utilised using wizards developed in the Biacore X100 control software which are both accepted methods of kinetic analysis (Karlsson, R., et al. Analyzing a kinetic titration series using affinity biosensors (2006) Analytical Biochemistry 349:136-47). The multi-cycle protocol was as follows-Three start-up cycles composed of an initial capture, to the desired level, of the scAb to be tested was performed followed by a 30 s injection of glycine buffer pH 2.0 after each cycle to regenerate the chip surface. The regeneration step removed any captured scAb whilst leaving the capture antibody intact and able to repeat the capture for the next cycle. Following three start-up cycles increasing concentrations (0.15625 nM-100 nM) of the target to be tested were added to the chip surface after the desired scAb capture. The target was added for a 120 s association period and 420 s dissociation period followed by another regeneration, 30 s injection of glycine buffer pH 2.0 in between each cycle.
as §2

Experiment [2] deals with alanine substituted 13mer tau peptides. Kind of experiment: Alanine scanning mutagenesis (ASM) peptide ELISA. The experiment is classed as binding, human. The conditions noted are these: numbering according to SEQ ID NO: 1; description text 'may be'. As to the method: To further elucidate epitopes of the scAb panel, and identify the critical amino acids needed for binding, alanine scanning mutagenesis of the parent 13 aa peptides for scAbs CE2, S1D12, CA4 and S1G2 was performed. […] Briefly, 5 μg/ml streptavidin (Thermo Fisher) was adsorbed to Nunc 96-well MaxiSorp plates and following incubation at 37° C., for 1 h, the plates were washed as normal and blocked with 2% MPBS. N-terminally biotinylated peptides (Prolmmune Ltd) were added to the plates and incubated for 1 h at 37° C. Subsequently, test scAbs at starting concentrations of 100-500 nM was added and double diluted across the plate for each peptide and incubated for 1 h at 37° C. Rest of the ELISA was conducted as described above and the plates were read at absorbance 450 nm. Immunoreactivity of the scAb of interest was quantified as the % of scAb was bound for each peptide at a chosen concentration (FIG. 15-20).

Setting [3] is: mAb, Table 27, immobilised hT40.
Where [4] appears, read: newly converted mAbs, Table 25 (Example 28), hT40.

Chain of hT40 (P10636 1-441 isoform P10636-8): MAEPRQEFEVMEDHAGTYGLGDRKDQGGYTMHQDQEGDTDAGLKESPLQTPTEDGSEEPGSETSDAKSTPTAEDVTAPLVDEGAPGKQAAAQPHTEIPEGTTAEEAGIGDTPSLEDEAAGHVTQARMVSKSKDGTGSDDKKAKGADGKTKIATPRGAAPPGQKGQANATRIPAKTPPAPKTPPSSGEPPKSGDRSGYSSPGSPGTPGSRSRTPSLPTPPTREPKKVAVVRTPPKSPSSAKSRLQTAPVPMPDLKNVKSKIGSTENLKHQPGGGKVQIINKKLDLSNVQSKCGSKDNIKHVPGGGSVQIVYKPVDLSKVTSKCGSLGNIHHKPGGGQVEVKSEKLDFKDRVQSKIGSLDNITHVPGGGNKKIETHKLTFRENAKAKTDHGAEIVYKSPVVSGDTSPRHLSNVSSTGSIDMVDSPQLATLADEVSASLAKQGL
Chain of htau40 (P10636 1-441 isoform P10636-8): as above
Chain of dGA (P10636 614-707): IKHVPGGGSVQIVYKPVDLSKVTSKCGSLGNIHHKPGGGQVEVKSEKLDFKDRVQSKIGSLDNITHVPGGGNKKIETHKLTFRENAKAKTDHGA

B1: CC7: anti-tau clone, SEQ ID NO: 365 (protein)
scFv: QVQLQESGPSLVKPSQTLSLTCTVSGFSLTSNAVIWVRQAPGKAPEWVALIDVDGDAAYDPALKSRLSITRDTSKSQVSLSLRSVTTEDTAVYYCARDYGSWGYVSDIDYWGPGLLVTVSSEGKSSGASGESKVDDRVVRTQPSSVSGSLGQRVSITCSGSYITGSSVGWFQQVPGSGLKTVIYDNNDRPSGVPDRFSGSKSGDTATLTISSLQAEDEADYYCASYDTSNIGLFGSGTRLTVLG
modifications: CC7 amino acid sequence
Consider B1, for which the ka was 295700 M⁻¹ s⁻¹ with hT40 and 4.576e+06 M⁻¹ s⁻¹ with htau40 (setting [3]). The kd with hT40 amounted to 0.0003659 s⁻¹; with htau40 (setting [3]), 0.03164 s⁻¹. In addition, in the experiment with human tau and mouse tau, the “bands detected in western blot of WT, L66+/+ and L1+/+ brain homogenates” value was “show specificity for human tau”.

B2: E2B7: anti-tau clone, SEQ ID NO: 254 (protein)
scFv: QVQLQESGPSLVKPSQTLSLTCTVSGFSLTSWGVAWVRQAPGKALEWLGTMRSGGGTEYNPALKSRLSITRDTSKSQVSLSLSSVTTEDMAMYYCARGYLSGIHYAWGRGLLVSVSSEGKSSGASGESKVDDQAVLTQLSSVSGSLGQRVSITCSGSSSNVGDGDYVGWFQQLPGSAPKLLIYSARNRASGVPDRFSGSRSGNTATLTITSLQAEDEADYYCASIDTSRSHIFGSGTRLTVLG
modifications: E2B7 amino acid sequence
Consider B2, for which the “cross-reactivity of 'E' group scAbs using hT40, dGA and dGAE antigens” value in experiment [1] was “specific dGAE binding”.

B3: NS2A1: anti-tau clone, SEQ ID NO: 220 (protein)
scFv: QVQLQESGPSLVKPSQTLSLTCTVSGFSLSTNSVGWVRQAPGKAPEWVAGIDTDGEEGFNPVLKSRLSITRDTSKSQVSLSLSNVTSEDTAVYYCGRSYRTDGLAYGYVQAIDYWGPGLLVTISSEGKSSGASGESKVDDQSVLTQPSSVSGSPGQTVSITCSGSYIGSSGVGWFQQLPGSGLRTIIVASDGRPSGVPDGFSMSKSGNTATLTISSLQAEDEADYFCGSSDRTQYTGLFGSGTRLTVLG
modifications: NS2A1 amino acid sequence
In the case of B3, the ka with hT40 was 252100 M⁻¹ s⁻¹; in the experiment with htau40 (setting [3]), 893700 M⁻¹ s⁻¹. Moreover, the kd with hT40 was 0.0007393 s⁻¹; with htau40 (setting [3]) it was 0.002621 s⁻¹. Besides, the “Kd” value in the experiment with dGA worked out at 0.00102 s⁻¹; with htau40 (mAb, Table 27, read-out: kD (M) for hT40 binding) it was 1e-08 M.

B4: CE2: anti-tau clone referred to as CE2 or E1B8, SEQ ID NO: 366 (protein)
scFv: QVQLQESGPSLVKPSQTLSLTCTVSGFSLTNYPVGWVRQAPGKALEWIGNIENDGSANYASALKSRLSITRDTSKNQVSLSLSSATTEDTAVYYCGREFGGSDGYTYFVDIDYWGPGLLVTVSSEGKSSGASGESKVDDQAVLTQPSSVSKSLGQSVSITCSGSSSNVGYGNYVSWFQQVPGSAPKILIYGATSRASGVPDRFSGSRSGNTATLTITSLQAEDEADYYCASYDGSSSGVFGSGTRLTVLG
modifications: CE2/E1B8 amino acid sequence
Consider B4, for which the ka was 213700 M⁻¹ s⁻¹ with hT40, 457900 M⁻¹ s⁻¹ in the experiment with htau40 (setting [3]) and 323800 M⁻¹ s⁻¹ in the experiment with htau40 (setting [4]). The kd with hT40 was 0.001077 s⁻¹; in the experiment with htau40 (setting [3]), 0.005218 s⁻¹; with htau40 (setting [4]), 0.001367 s⁻¹. The “Kd” value in the experiment with dGA is 0.00242 s⁻¹. For the same molecule, the “cross-reactivity of 'E' group scAbs using hT40, dGA and dGAE antigens” value in experiment [1] is listed as “cross-reacts with dGA; also recorded: specific binding to the tau peptide representing amino acids from 313-336”. Besides, in experiment [2], the “Critical residues of the epitope” value is reported as 323 (G), 324 (S), 325 (L), 326 (G), 327 (N) and/or 328 (I).
